Results from patent publication US20090123479A1 (published 2009).

T1: recombinant human IL-23 (human, UniProt Q9NPF7 20-189; P29460 23-328)
T1 construct: also called hIL-23
T1 sequence 1: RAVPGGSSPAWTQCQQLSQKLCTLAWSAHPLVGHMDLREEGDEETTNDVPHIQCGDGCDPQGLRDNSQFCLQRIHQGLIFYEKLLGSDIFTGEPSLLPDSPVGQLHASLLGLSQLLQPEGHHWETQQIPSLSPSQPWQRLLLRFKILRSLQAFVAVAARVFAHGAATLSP
T1 sequence 2: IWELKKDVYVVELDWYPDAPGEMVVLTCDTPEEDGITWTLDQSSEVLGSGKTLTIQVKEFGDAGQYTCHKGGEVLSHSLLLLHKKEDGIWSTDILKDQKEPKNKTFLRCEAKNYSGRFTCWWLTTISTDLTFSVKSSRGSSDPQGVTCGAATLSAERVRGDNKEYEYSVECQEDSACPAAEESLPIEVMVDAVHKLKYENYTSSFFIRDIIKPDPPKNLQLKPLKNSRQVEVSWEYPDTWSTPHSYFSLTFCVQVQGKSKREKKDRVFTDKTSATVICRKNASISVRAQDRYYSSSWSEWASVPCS


Columns and labels:
recombinant human IL-23 [1] = biological target: T1, recombinant human IL-23; test: SPR (Biacore T100), purified antibody captured on anti-human IgG, IL-23 analyte, 1:1 model
Protocol: (§1) Biacore analysis was carried out using a capture surface on a CM5 chip. Anti-human IgG (BR-1008-39) was used as the capturing agent. Anti-human IgG was coupled to a CM5 biosensor chip by primary amine coupling. Humanized antibody was captured on this immobilised surface and defined concentrations of IL-23 were passed over this captured surface. An injection of buffer over the captured antibody surface was used for double-referencing. […] T100 Biacore machine was used to generate the data; all runs were carried out at 25° C. using HBS EP. Data was analysed using the software inherent to the machine and fitted to the 1:1 model of binding. Tables 7 and 8 detail the IL-23 binding analysis carried out on the 8C92H6.HC1LC1 chimera and selected humanized variants in two separate experiments. Data presented in Tables 7 and 8 are from purified antibody samples. The data shown for the humanized variants is representative of a number of runs. The chimeric mAb (8C9H6.HC1LC1) was only run once in each experiment, so data shown for this mAb is from that one run.

recombinant human IL-23 [2] = biological target: T1, recombinant human IL-23; test: IL-23/IL-23R inhibition ELISA (optimised protocol, OD450): plate coated with human IL23R Fc chimera, antibody pre-incubated with constant human IL-23, bound IL-23 detected with biotinylated anti-human IL-12; purified antibody
Protocol: Optimised protocol: Plates were coated with human IL23R Fc chimera at […] (phosphate buffered saline). 50 μl/well of this mixture was incubated overnight at 4° C. The plates were then washed three times with Phosphate Buffered Saline with 0.05% Tween 20 (PBST). Plates were blocked with 4% skim milk powder (Fluka BioChemika #70166) PBST 100 μl/well for a minimum of 1 hour at room temperature. The plates were then washed three times with Phosphate Buffered Saline+0.05% Tween 20 (PBST). Various concentrations of antibody were incubated in a separate plate with a constant concentration of IL-23 for 1 hour at room temperature. 50 ul of each mixture were transferred to the assay plate and incubated at RT for 1 hr. They were then washed three times with Phosphate Buffered Saline+0.05% Tween 20 (PBST). Bound IL23 was detected by anti human 1L12 Biotin labelled Ab (R&D systems BAF219) diluted to 100 ng/ml in 4% skim milk powder (Fluka BioChemika #70166) PBST. 50 μl/well of the biotinylated antibody was added and incubated at RT for 1 hour. The plates were then washed three times with Phosphate Buffered Saline+0.05% Tween 20 (PBST). SA HRP (GE healthcare RPN4401) was diluted 1/4000 in 4% skim m ilk powder (Fluka BioChemika #70166) PBS, 50 μl/well was added to the plates. The plates were then washed three times with Phosphate Buffered Saline+0.05% Tween 20 (PBST). 50 ul/well of TMB was added to the plates and incubated at RT for 15 min. 25 μl/well of 3 MH₂SO₄ was added to the wells already containing TMB. The plate was read at OD450 nm using the SOftmaxPRO versamax plate reader.

recombinant human IL-23 [3] = biological target: T1, recombinant human IL-23; test: SPR (Biacore T100), tissue culture supernatant antibody captured on anti-human IgG, IL-23 analyte
Protocol: as §1, with “Data presented in Tables 7 and 8 are from purified antibody samples.” left out

| Kd (recombinant human IL-23 [1]) [nM] | koff (recombinant human IL-23 [1]) [s⁻¹] | kon (recombinant human IL-23 [1]) [M⁻¹ s⁻¹] | IC50 (read off the curve) (recombinant human IL-23 [2]) [nM] | Kd (recombinant human IL-23 [3]) [nM] | koff (recombinant human IL-23 [3]) [s⁻¹] | kon (recombinant human IL-23 [3]) [M⁻¹ s⁻¹] | Binder |
| --- | --- | --- | --- | --- | --- | --- | --- |
| 0.103 | 0.000171 | 1.65e+06 | ~0.2 | – | – | – | A5M0 (antibody, human IgG1, kappa, V domains shown, Full length chains) VH: QVQLVQSGAEVKKPGSSVKVSCKASGYTFTSYGITWVRQAPGQGLEWMGENYPRSGNTYYNEKFKGRVTITADKSTSTAYMELSSLRSEDTAVYYCARAEFISTVVAPYYYALDYWGQGTLVTVSS VL: DIVMTQSPDSLAVSLGERATINCKASKKVTIFGSISALHWYQQKPGQPPKLIYNGAKLESGVPDRFSGSGSGTDFTLTISSLQAEDVAVYYCLQNKEVPYTFGGGTKVEIKR |
| – | – | – | – | 0.0483 | 0.000151 | 3.12e+06 | A12.5M4 (antibody, V domains shown) VH: QVQLVQSGAEVKKPGSSVKVSCKASGYTFASYGITWVRQAPGQGLEWMGENYPRSGNTYYNEKFKGRVTITADKSTSTAYMELSSLRSEDTAVYYCARVEFISTVVAPYYYALDYWGQGTLVTVSS VL: DIVMTQSPDSLAVSLGERATINCKASKKVTIFGSTSALHWYQQKPGQPPKLIYNGAKPESGVPDRFSGSGSGTDFTLTISSLQAEDVAVYYCLQNKEVPYTFGGGTKVEIK |
| – | – | – | – | 0.0553 | 0.000163 | 2.94e+06 | A12M4 (antibody, V domains shown) VH: QVQLVQSGAEVKKPGSSVKVSCKASGYTFASYGITWVRQAPGQGLEWMGENYPRSGNTYYNEKFKGRVTITADKSTSTAYMELSSLRSEDTAMYYCARVEFISTVVAPYYYALDYWGQGTLVTVSS VL: DIVMTQSPDSLAVSLGERATINCKASKKVTIFGSTSALHWYQQKPGQPPKLIYNGAKPESGVPDRFSGSGSGTDFTLTISSLQAEDVAVYYCLQNKEVPYTFGGGTKVEIK |
| 0.144 | 0.000145 | 1.01e+06 | ~0.2 | – | – | – | A7M3 (antibody, human IgG1, kappa, V domains shown, Full length chains) VH: QVQLVQSGAEVKKPGSSVKVSCKASGYTFTSYGITWVRQAPGQGLEWMGEDYPRSGNTYYNEKFKGRVTITADKSTSTAYMELSSLRSEDTAVYYCARSEFISTVVAPYYYALDYWGQGTLVTVSS VL: DIVMTQSPDSLAVSLGERATINCKASKKVTIFGSTSALHWYQQKPGQPPKLIYNGAKLESGVPDRFSGSGSGTDFTLTISSLQAEDVAVYYCLQNKEVPYTFGGGTKVEIKR |
| – | – | – | – | 0.0794 | 0.000202 | 2.54e+06 | A12M3 (antibody, V domains shown) VH: QVQLVQSGAEVKKPGSSVKVSCKASGYTFASYGITWVRQAPGQGLEWMGENYPRSGNTYYNEKFKGRVTITADKSTSTAYMELSSLRSEDTAMYYCARVEFISTVVAPYYYALDYWGQGTLVTVSS VL: DIVMTQSPDSLAVSLGERATINCKASKKVTIFGSTSALHWYQQKPGQPPKLIYNGAKLESGVPDRFSGSGSGTDFTLTISSLQAEDVAVYYCLQNKEVPYTFGGGTKVEIK |

The next lines start with the binder.

| Binder | Kd (recombinant human IL-23 [1]) [nM] | koff (recombinant human IL-23 [1]) [s⁻¹] | kon (recombinant human IL-23 [1]) [M⁻¹ s⁻¹] | IC50 (read off the curve) (recombinant human IL-23 [2]) [nM] | Kd (recombinant human IL-23 [3]) [nM] | koff (recombinant human IL-23 [3]) [s⁻¹] | kon (recombinant human IL-23 [3]) [M⁻¹ s⁻¹] |
| --- | --- | --- | --- | --- | --- | --- | --- |
| A9M3 (antibody, V domains shown) VH: QVQLVQSGAEVKKPGSSVKVSCKASGYTFTSYGITWVRQAPGQGLEWMGEDYPRSGNTYYNEKFKGRVTITADKSTSTAYMELSSLRSEDTAVYYCARVEFISTVVAPYYYALDYWGQGTLVTVSS VL: DIVMTQSPDSLAVSLGERATINCKASKKVTIFGSTSALHWYQQKPGQPPKLIYNGAKLESGVPDRFSGSGSGTDFTLTISSLQAEDVAVYYCLQNKEVPYTFGGGTKVEIK | 0.065 | 0.000171 | 2.64e+06 | ~0.1 | – | – | – |
| A8M3 (antibody, V domains shown) VH: QVQLVQSGAEVKKPGSSVKVSCKASGYTFTSYGITWVRQAPGQGLEWMGEDYPRSGNTYYNEKFKGRVTITADKSTSTAYMELSSLRSEDTAVYYCARAEFISTVVAPYYYALDYWGQGTLVTVSS VL: DIVMTQSPDSLAVSLGERATINCKASKKVTIFGSTSALHWYQQKPGQPPKLIYNGAKLESGVPDRFSGSGSGTDFTLTISSLQAEDVAVYYCLQNKEVPYTFGGGTKVEIK | 0.08 | 0.000135 | 1.67e+06 | ~0.2 | – | – | – |
| A6M0 (antibody, human IgG1, kappa, V domains shown, Full length chains) VH: QVQLVQSGAEVKKPGSSVKVSCKASGYTFTSYGITWVRQAPGQGLEWMGENYPRSGNTYYNEKFKGRVTITADKSTSTAYMELSSLRSEDTAVYYCARVEFISTVVAPYYYALDYWGQGTLVTVSS VL: DIVMTQSPDSLAVSLGERATINCKASKKVTIFGSISALHWYQQKPGQPPKLIYNGAKLESGVPDRFSGSGSGTDFTLTISSLQAEDVAVYYCLQNKEVPYTFGGGTKVEIKR | 0.101 | 0.000298 | 2.95e+06 | ~0.2 | – | – | – |
